Reference: US20020123614A1 (published 2002)

T1: recombinant ICAM-2 Fc chimera (UniProt P13598 25-223, limits assumed)
T1 construct: amine-coupled to the BIAcore chip; not shown: Fc part, not described
T1 sequence (looked up): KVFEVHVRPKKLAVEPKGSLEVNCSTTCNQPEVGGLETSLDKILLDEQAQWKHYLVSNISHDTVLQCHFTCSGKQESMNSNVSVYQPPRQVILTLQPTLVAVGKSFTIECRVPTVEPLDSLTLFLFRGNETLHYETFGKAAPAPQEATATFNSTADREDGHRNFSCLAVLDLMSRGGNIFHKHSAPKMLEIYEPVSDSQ

T2: recombinant ICAM-3 Fc chimera (UniProt P32942 30-485, limits assumed)
T2 construct: amine-coupled to the BIAcore chip; not shown: Fc part, not described
T2 sequence (looked up): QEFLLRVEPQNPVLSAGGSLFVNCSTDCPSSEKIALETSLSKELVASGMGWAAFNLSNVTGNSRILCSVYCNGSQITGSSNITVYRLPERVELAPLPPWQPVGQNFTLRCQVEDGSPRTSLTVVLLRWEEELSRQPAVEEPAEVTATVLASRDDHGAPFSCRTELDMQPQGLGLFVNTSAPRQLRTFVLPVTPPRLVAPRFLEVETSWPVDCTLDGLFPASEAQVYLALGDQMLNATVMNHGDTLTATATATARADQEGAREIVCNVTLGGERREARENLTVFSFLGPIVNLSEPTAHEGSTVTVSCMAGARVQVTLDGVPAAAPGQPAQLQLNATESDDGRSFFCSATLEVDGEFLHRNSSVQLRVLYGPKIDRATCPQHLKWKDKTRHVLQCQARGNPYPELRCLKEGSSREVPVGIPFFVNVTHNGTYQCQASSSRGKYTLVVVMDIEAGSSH


How the values were obtained:
[1] = molecular target: T1, recombinant ICAM-2 Fc chimera; assay: BIAcore, 1 mM MgCl2
Procedure: (§1) The recombinant proteins were purified from inclusion bodies by solubilization of inclusion bodies in 6M guanidine HCl and were refolded by dilution in the presence of 0.1 mM Cu²⁺/phenanthrolin to enhance formation of disulfide bonds. Protein was concentrated by ammonium sulfate precipitation, dialyzed, and purified over a monoQ ion-exchange column. […] The recombinant proteins were then purified by gel filtration and concentrated by Centriprep. For BIAcore™ analysis, recombinant ICAM-1, ICAM-2 and ICAM-3 Fc chimeras were immobilized on the BIAcore™ sensor chip by an amine-coupling method. Recombinant αL I-domains were flowed in, and BIAcore™ assays were performed with Tris-buffered saline supplemented with 1 mM MgCl₂ or 2 mM EDTA, at a flow rate of 10 μl/minute at 25° C.

[2] = molecular target: T2, recombinant ICAM-3 Fc chimera; assay: BIAcore, 1 mM MgCl2
Procedure: as §1

[3] = molecular target: T3, recombinant ICAM-1 Fc chimera (UniProt P05362 28-480, limits assumed); assay: BIAcore; dissociation phase, 1:1 model
T3 construct: amine-coupled to the BIAcore chip; not shown: Fc part, not described
Procedure: (§2) Recombinant soluble αL I-domains were expressed in E. coli, refolded and purified. Kinetics of binding of the I-domains to ICAM-1 was measured by BIAcore ™ instruments. Kinetics was analyzed BIAevaluation ™ software. KD was calculated by Scatchard plots using data at steady states. Koff was obtained by curve fining of the dissociation phase using 1:1 binding model. Kon was calculated by Koff/KD.

[4] = molecular target: T3, recombinant ICAM-1 Fc chimera; assay: BIAcore; Kon calculated by Koff/KD
Procedure: as §2

[5] = molecular target: T3, recombinant ICAM-1 Fc chimera; assay: BIAcore; Scatchard plots at steady state
Procedure: as §2

[6] = molecular target: T1, recombinant ICAM-2 Fc chimera; assay: BIAcore, ICAM Fc chimera immobilized, 1:1 model
Procedure: as §1

[7] = molecular target: T2, recombinant ICAM-3 Fc chimera; assay: BIAcore, ICAM Fc chimera immobilized, 1:1 model
Procedure: as §1

[8] = molecular target: T3, recombinant ICAM-1 Fc chimera; assay: BIAcore, ICAM Fc chimera immobilized, 1:1 model
Procedure: as §1

[9] = molecular target: T4, murine ICAM-1 (murine, UniProt P13597 28-485, limits assumed); assay: BIAcore (not described further)
T4 construct: on EL-4 cells in the aggregation assay

[10] = molecular target: ICAM-1 (BIAcore, another study; construct not stated) (UniProt P05362 28-480, limits assumed); assay: BIAcore, another study
ICAM-1 (BIAcore, another study; construct not stated), sequence (P05362 28-480 limits assumed): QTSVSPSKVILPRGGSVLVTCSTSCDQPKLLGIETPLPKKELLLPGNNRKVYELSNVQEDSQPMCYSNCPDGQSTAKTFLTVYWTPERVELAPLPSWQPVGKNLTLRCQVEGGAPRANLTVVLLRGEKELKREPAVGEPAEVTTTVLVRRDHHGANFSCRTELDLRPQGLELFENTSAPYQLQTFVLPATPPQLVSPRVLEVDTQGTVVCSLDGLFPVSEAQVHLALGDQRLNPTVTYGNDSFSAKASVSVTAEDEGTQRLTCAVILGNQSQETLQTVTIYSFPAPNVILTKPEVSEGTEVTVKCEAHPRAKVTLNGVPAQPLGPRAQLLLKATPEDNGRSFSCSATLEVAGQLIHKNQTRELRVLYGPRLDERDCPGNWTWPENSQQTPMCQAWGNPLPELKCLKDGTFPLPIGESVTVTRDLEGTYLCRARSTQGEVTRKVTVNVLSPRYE

T3 sequence (P05362 28-480 limits assumed, stated change not applied): as the sequence (P05362 28-480 limits assumed) above
T4 sequence (P13597 28-485 limits assumed): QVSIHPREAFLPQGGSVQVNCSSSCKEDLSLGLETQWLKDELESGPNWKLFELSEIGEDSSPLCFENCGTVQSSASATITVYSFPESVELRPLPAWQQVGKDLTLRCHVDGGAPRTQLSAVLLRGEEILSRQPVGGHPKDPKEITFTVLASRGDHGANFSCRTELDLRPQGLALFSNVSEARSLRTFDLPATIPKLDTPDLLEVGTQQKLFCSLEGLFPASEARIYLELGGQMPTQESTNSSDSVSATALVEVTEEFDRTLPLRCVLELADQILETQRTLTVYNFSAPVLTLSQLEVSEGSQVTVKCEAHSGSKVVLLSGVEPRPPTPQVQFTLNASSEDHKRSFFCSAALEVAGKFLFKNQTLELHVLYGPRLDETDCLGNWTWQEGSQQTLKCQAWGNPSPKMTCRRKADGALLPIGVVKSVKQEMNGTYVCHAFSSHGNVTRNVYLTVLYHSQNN

Binder	koff [3] [s⁻¹]	kon [4] [M⁻¹ s⁻¹]	Kd [5] [µM]	further results
recombinant soluble wild-type αL I-domain (G128-Y307), E. coli (receptor, numbers as printed, probably mature αL numbering; also called soluble wild-type I domain; wild-type I-domain) GNVDLVFLFDGSMSLQPDEFQKILDFMKDVMKKLSNTSYQFAAVQFSTSYKTEFDFSDYVKRKDPDALLKHVKHMLLLTNTFGAINYVATEVFREELGARPDATKVLIIITDGEATDSGNIDAAKDIIRYIIGIGKHFQTKESQETLHKFASKPASEFVKILDTFEKLKDLFTELQKKIY	–	–	–	binding result [1]: no binding; binding result [2]: no binding
recombinant soluble αL I-domain E284C/E301C (locked open) (receptor) GNVDLVFLFDGSMSLQPDEFQKILDFMKDVMKKLSNTSYQFAAVQFSTSYKTEFDFSDYVKRKDPDALLKHVKHMLLLTNTFGAINYVATEVFREELGARPDATKVLIIITDGEATDSGNIDAAKDIIRYIIGIGKHFQTKESQETLHKFASKPASCFVKILDTFEKLKDLFTCLQKKIY	0.0459	128000	0.36	–
recombinant soluble αL I-domain K160C/F299C (locked open, intermediate affinity) (receptor) GNVDLVFLFDGSMSLQPDEFQKILDFMKDVMKCLSNTSYQFAAVQFSTSYKTEFDFSDYVKRKDPDALLKHVKHMLLLTNTFGAINYVATEVFREELGARPDATKVLIIITDGEATDSGNIDAAKDIIRYIIGIGKHFQTKESQETLHKFASKPASEFVKILDTFEKLKDLCTELQKKIY	0.67	153000	4.39	–
recombinant soluble αL I-domain L161C/F299C (locked open, intermediate affinity) (receptor) GNVDLVFLFDGSMSLQPDEFQKILDFMKDVMKKCSNTSYQFAAVQFSTSYKTEFDFSDYVKRKDPDALLKHVKHMLLLTNTFGAINYVATEVFREELGARPDATKVLIIITDGEATDSGNIDAAKDIIRYIIGIGKHFQTKESQETLHKFASKPASEFVKILDTFEKLKDLCTELQKKIY	0.513	136000	3.76	–
recombinant soluble αL I-domain L161C/T300C (locked open, intermediate affinity) (receptor) GNVDLVFLFDGSMSLQPDEFQKILDFMKDVMKKCSNTSYQFAAVQFSTSYKTEFDFSDYVKRKDPDALLKHVKHMLLLTNTFGAINYVATEVFREELGARPDATKVLIIITDGEATDSGNIDAAKDIIRYIIGIGKHFQTKESQETLHKFASKPASEFVKILDTFEKLKDLFCELQKKIY	0.65	135000	4.8	–
recombinant soluble αL I-domain L289C/K294C (locked closed) (receptor) GNVDLVFLFDGSMSLQPDEFQKILDFMKDVMKKLSNTSYQFAAVQFSTSYKTEFDFSDYVKRKDPDALLKHVKHMLLLTNTFGAINYVATEVFREELGARPDATKVLIIITDGEATDSGNIDAAKDIIRYIIGIGKHFQTKESQETLHKFASKPASEFVKICDTFECLKDLFTELQKKIY	2.84	2110	1760	–
recombinant soluble αL I-domain stabilized in the open conformation (K287C/K294C), G128-Y307, E. coli (receptor, introduced disulfide C287-C294, numbers as printed, probably mature αL numbering; also called open I-domain; soluble open I-domain) GNVDLVFLFDGSMSLQPDEFQKILDFMKDVMKKLSNTSYQFAAVQFSTSYKTEFDFSDYVKRKDPDALLKHVKHMLLLTNTFGAINYVATEVFREELGARPDATKVLIIITDGEATDSGNIDAAKDIIRYIIGIGKHFQTKESQETLHKFASKPASEFVCILDTFECLKDLFTELQKKIY	0.023	128000	0.18	Kd [6]: 0.513 µM; koff [6]: 0.0118 s⁻¹; kon [6]: 23000 M⁻¹ s⁻¹; Kd [7]: 3.94 µM; koff [7]: 0.0749 s⁻¹; kon [7]: 19000 M⁻¹ s⁻¹; Kd [8]: 0.18 µM; koff [8]: 0.023 s⁻¹; kon [8]: 128000 M⁻¹ s⁻¹; binding result [9]: binds; Kd [10]: 0.2 µM
